Assay results from patent publication US20240301052A1 (LANOVA MEDICINES DEVELOPMENT, published 2024).
Like-named read-outs stand apart in the source and are kept apart here.

T1: human SLC34A2 (human, UniProt O95436 1-690)
T1 construct: whole, on cells; also called human solute carrier 34 A2; NaPi2b
T1 sequence (looked up): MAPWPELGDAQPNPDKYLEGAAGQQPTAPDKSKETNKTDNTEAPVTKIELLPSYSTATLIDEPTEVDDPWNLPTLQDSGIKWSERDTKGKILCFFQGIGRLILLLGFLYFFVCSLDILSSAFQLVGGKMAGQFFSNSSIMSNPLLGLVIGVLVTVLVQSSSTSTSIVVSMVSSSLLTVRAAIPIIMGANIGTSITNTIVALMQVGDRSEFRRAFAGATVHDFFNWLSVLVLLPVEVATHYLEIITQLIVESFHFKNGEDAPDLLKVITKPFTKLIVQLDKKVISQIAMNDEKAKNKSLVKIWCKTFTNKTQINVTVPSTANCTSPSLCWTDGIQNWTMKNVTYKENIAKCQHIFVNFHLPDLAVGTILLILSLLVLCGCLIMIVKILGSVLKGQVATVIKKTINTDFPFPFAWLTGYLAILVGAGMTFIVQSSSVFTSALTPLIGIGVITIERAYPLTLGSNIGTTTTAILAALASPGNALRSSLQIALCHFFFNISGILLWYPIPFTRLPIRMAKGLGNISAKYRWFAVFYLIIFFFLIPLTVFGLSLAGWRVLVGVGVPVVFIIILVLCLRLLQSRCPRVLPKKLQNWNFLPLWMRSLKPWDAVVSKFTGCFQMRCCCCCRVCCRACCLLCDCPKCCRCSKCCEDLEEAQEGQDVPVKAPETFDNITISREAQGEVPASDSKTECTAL

T2: Cynomolgus SLC34A2 (Cynomolgus, UniProt A0A2K5UHY1 1-690)
T2 construct: whole, on cells; also called Cyno SLC34A2
T2 sequence: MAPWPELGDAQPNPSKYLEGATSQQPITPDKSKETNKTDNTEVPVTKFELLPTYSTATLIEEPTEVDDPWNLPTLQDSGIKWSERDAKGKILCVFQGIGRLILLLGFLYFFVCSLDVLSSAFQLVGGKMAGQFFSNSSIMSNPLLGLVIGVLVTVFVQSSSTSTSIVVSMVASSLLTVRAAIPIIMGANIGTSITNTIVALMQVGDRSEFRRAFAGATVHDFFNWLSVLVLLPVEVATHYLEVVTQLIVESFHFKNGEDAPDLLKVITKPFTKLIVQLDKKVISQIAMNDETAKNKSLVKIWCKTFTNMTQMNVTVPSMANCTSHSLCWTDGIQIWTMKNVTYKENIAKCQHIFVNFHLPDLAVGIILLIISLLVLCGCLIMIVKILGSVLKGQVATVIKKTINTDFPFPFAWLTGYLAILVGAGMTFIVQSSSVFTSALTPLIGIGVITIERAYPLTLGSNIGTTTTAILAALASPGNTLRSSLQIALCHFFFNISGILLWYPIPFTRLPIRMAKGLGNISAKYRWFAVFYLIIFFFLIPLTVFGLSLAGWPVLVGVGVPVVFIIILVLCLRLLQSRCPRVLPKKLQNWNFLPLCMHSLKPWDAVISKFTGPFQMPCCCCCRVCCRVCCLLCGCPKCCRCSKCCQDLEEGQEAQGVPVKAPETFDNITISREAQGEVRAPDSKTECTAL

T3: Rhesus SLC34A2 (Rhesus, UniProt F7HDA3 1-690)
T3 construct: whole, on cells
T3 sequence: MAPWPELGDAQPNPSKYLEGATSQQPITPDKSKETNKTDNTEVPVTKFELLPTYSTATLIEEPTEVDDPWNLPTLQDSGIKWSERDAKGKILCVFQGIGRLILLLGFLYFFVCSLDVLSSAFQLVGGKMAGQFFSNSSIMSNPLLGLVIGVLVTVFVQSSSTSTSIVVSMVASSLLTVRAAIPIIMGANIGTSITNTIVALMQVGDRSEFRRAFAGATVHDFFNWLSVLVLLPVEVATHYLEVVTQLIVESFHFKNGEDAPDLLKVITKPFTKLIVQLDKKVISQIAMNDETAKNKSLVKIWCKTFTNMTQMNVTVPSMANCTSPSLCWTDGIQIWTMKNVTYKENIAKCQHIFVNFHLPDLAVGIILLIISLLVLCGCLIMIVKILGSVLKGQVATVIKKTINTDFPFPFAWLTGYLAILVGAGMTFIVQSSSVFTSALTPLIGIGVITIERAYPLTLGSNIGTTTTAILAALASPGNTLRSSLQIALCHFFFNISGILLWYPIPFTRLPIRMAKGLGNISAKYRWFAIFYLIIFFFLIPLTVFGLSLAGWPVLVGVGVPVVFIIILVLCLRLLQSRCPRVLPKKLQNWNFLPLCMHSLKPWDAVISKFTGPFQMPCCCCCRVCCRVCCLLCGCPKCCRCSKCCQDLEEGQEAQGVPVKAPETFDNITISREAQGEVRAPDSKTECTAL


How the values were obtained:
human SLC34A2 [1] = target: T1, human SLC34A2; test: FACS, OVCAR3 cells
Protocol: The binding of these humanized antibodies to OVCAR3 cells was evaluated as described above, and the results are shown in FIG. 12A-D and Tables 16A-D.

human SLC34A2 [2] = target: T1, human SLC34A2; test: FACS, RMG-1 cells
Cynomolgus SLC34A2 = target: T2, Cynomolgus SLC34A2; test: FACS, cells expressing Cynomolgus SLC34A2
human SLC34A2 [3] = target: T1, human SLC34A2; test: cell-based or functional assay
human SLC34A2 [4] = target: T1, human SLC34A2; test: cell-based or functional assay; remark: listed apart in the source
Rhesus SLC34A2 = target: T3, Rhesus SLC34A2; test: FACS, HEK293/Rhesus SLC34A2 cells
human SLC34A2 [5] = target: T1, human SLC34A2; test: cell-based or functional assay; remark: listed apart in the source
human SLC34A2 [6] = target: T1, human SLC34A2; test: FACS, OVCAR3 cells; remark: listed apart in the source
Summary of the method: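 Chimeric hIgG1 antibodies titrated from 200 nM (4-fold, 8 points) on OVCAR3 cells or HEK293 cells expressing human SLC34A2, 60 min at 4° C. Bound antibody detected with fluorescent secondary antibody (30 min, 4° C) and measured by flow cytometry.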

Binder | EC50 (human SLC34A2 [1]) [nM] | Top (MFI) (human SLC34A2 [1]) | EC50 (human SLC34A2 [2]) [nM] | EC50 (Cynomolgus SLC34A2) [nM] | ADCC-HEK293 (human SLC34A2 [3]) [nM] | ADCC-OVCAR3 (human SLC34A2 [3]) [nM] | Cytotoxic Effect - MDAH-2774 (human SLC34A2 [3]) [nM] | Cytotoxic Effect - OVCAR3 (human SLC34A2 [3]) [nM] | cytotoxicity EC50 (human SLC34A2 [4]) [nM] | cytotoxicity Inhibition % (human SLC34A2 [4]) [%] | EC50 (Rhesus SLC34A2) [nM] | Top (MFI) (Rhesus SLC34A2) | ADCC reporter EC50 (human SLC34A2 [5]) [nM] | ADCC reporter Top (MFI) (human SLC34A2 [5]) | EC50 (human SLC34A2 [6]) [nM] | Top (MFI) (human SLC34A2 [6])
30H9B8F9.p1.z5 hIgG1 (antibody, V domains shown, humanized hIgG1) VH: QVQLVQSGAEVKKPGASVKVSCKTSGYTFTTNNMHWVRQAPGQGLEWIGAIYPGSGATAYNQKFKGRVTMTADTSTSTVYMELSSLRSEDTAVYYCARGMYGHGAMDYWGQGTLVTVSS VL: DIQLTQSPSFLSASVGDRVTITCKASQDVGTAVAWYQQKPGKAPKLLIYWATTRHSGVPSRFSGSGSGTEFTLTISSLQPEDFATYYCQQYSSNPLTFGQGTKLEIK | 1.43 | 26900 | 1.4 | 0.97 | 1.4 | 0.16 | 0.21 | 0.02 |  |  |  |  |  |  |  | 
xi91C9F1 hIgG1 (antibody, V domains shown, chimeric, hIgG1) VH: EVQLQQSGPELVKPGTSVKISCKTSGFFFTEYIIHWVKQSHGRSLEWIGGIIPNNGVTNYKQNFRGKAALTADKSSNTAYMELRSLTSEDSAVYYCARWRNGYYSAMDSWGQGTSVTVSS VL: DIVVTQSHKFMSTSLGDRVSITCTASQDVGTAVAWYQQKPGHSPKLLIYWASTRHTGVPERFTGSGSGTDFTLTITNVQSEDLADYFCQQYRTSPLTFGVGTKLELK |  |  |  |  |  |  |  |  | 0.8 | 97.4 | 3.9 | 15500 | 2.8 | 215000 | 1.64 | 26400
xi63A11D5B4 hIgG1 (antibody, V domains shown, chimeric, hIgG1) VH: QVQLQQPGAELVKPGASVKMSCRTSGYTFITYNMHWVKQTPGQGREWIGAIYPGNGDTSYNQKFKGKATLTADKSSSTAYMQLNSLTSEDSAVYYCSISTIITTGAVDYWGQGTSVTVAS VL: DIVMTQSHKFMSTSVGDRVSITCKASQDVGTAVAWYQQKAGQSPKLLIYWTSTRHTGVPDRFTGSGSGTDFTLIIRSLQSEDLADYFCQQYSRIPLTFGSGTKLEIK |  |  |  |  |  |  |  |  | 0.66 | 99 | 4.6 | 45500 | 4.6 | 216000 | 3.85 | 43000
62G10E4G8.p3.z15 hIgG1 (antibody, V domains shown, humanized hIgG1) VH: QVQLVQSGAEVVKPGASVKMSCKASGYTFPSYITHWVKQAPGQGLEWIGAIYPGNADTSYIQKFKGRATLTADKSTSTAYMELSSLRSEDTAVYYCARGTYGTSAWFTYWGQGTLVTVSS VL: EIVLTQSPATLSVSPGERATLSCRARQNIGNNLYWYQQKPGQSPRLLIKYASQSISGIPSRFSGSGSGTDFTLTISSLQSEDFAVYFCQQSFSWPLTFGQGTKLEIK | 3.76 | 27300 | 3.7 | 1.63 | 1.55 | 0.56 | 0.24 | 0.025 |  |  |  |  |  |  |  | 
xi62G10E4G8 hIgG1 (antibody, V domains shown, chimeric, hIgG1) VH: QVQLQQSGAEVVKPGASVKMSCKASGYTFPSYITHWVKQTPGQGLEWIGAIYPGNGDTSYIQKFKGKATLTADKSSSTAYMQLSSLTSEDSAVYYCARGTYGTSAWFTYWGQGTLVTVSA VL: DIVLTQSPATLSVTPGDSVSLSCRARQNIGNNLYWYQQKSHESPRLLIKYASQSISGIPSRFSGSGSGTDFTLTINSVETEDFGVYFCQQSFSWPLTFGAGTKLELK | 3.73 | 27600 |  |  |  |  |  |  | 0.42 | 97.2 | 3.7 | 39100 | 4.8 | 542000 | 2.55 | 43000
63A11D5B4.p1.z9 hIgG1 (antibody, V domains shown, humanized hIgG1) VH: QVQLVQSGAEVVKPGASVKMSCKTSGYTFITYNMHWVRQAPGQGLEWIGAIYPGSGDTSYNQKFKGRVTLTADKSTSTAYMELSSLRSEDTAVYYCSISTIITTGAVDYWGQGTLVTVSS VL: DIQMTQSPSSLSASVGDRVTITCKASQDVGTAVAWYQQKPGKVPKLLIYWTSTRHTGVPSRFSGSGSGTDFTLTISSLQPEDVATYYCQQYSRIPLTFGGGTKVEIK |  |  | 28.3 | 4.45 | 0.52 | 0.3 | 1.5 | 0.06 |  |  |  |  |  |  |  | 
91C9F1.p1.z7 hIgG1 (antibody, V domains shown, humanized hIgG1) VH: QVQLVQSGAEVKKPGSSVKVSCKTSGFFFTEYIIHWVRQAPGQGLEWIGGIIPNNDVTNYKQNFRGRVTLTADKSTSTAYMELSSLRSEDTAVYYCARWRNAYYSAMDSWGQGTTVTVSS VL: DIQVTQSPSSLSTSVGDRVTITCTASQDVGTAVAWYQQKPGKSPKLLIYWASTRHTGVPERFTGSGSGTDFTLTISSVQPEDVATYFCQQYRTSPLTFGVGTKVEIK |  |  | 2.3 | 45.7 | 0.75 | 0.15 | 0.39 | 0.014 |  |  |  |  |  |  |  | 
xi30H9B8F9 hIgG1 (antibody, V domains shown, chimeric, hIgG1) VH: QVQLQQPGAELVKPGASVKMSCKTSGYTFTTNNMHWVKQTPGQGLEWIGAIYPGNGATAYNQKFKGKATLTADKSSSTAYMQLSSLTSEASAVYYCARGMYGHGAMDYWGQGTSVIVSS VL: DIVMTQSHKFMSRSVGDRVRITCKASQDVGTAVAWYQQKPGQSPKLLIYWATTRHSGVPDRFTGSGSGTDFIFTISNVQSEDLADYFCQQYSSNPLTFGAGTKLELK | 1.19 | 29300 |  |  |  |  |  |  | 0.84 | 91.7 | 1.9 | 47900 | 3.1 | 487000 | 0.53 | 41900
